The text below walks through data of article PMC6787021.

Experiment [1] addresses TbMscL I23C, spin-labeled with MTSSL (Mycobacterium tuberculosis) (UniProt P9WJN5). In words: SEC. (In general: SEC sorts molecules by how far they enter the pores of the column.)
Experiment [2] has as its target TbMscL E102C, spin-labeled with MTSSL (Mycobacterium tuberculosis) (UniProt P9WJN5). Kind of experiment: SEC.
Experiment [3] has the same target. In words: SEC; samples thawed after PELDOR measurements and run over SEC.
The target of experiment [4] is TbMscL L73R1-L89W (Mycobacterium tuberculosis) (UniProt P9WJN5). Kind of experiment: SEC.
In experiment [5] the target is TbMscL N70C, spin-labeled with MTSSL (Mycobacterium tuberculosis) (UniProt P9WJN5). In words: SEC.
The target of experiment [6] is TbMscL L89C, spin-labeled with MTSSL (Mycobacterium tuberculosis) (UniProt P9WJN5). Kind of experiment: SEC.
Experiment [7] has as its target TbMscL L42C, spin-labeled with MTSSL (Mycobacterium tuberculosis) (UniProt P9WJN5). In words: SEC.
In experiment [8] the target is TbMscL F34C, spin-labeled with MTSSL (Mycobacterium tuberculosis) (UniProt P9WJN5). In words: SEC.
Experiment [9] has as its target TbMscL N70R1-L89W (Mycobacterium tuberculosis) (UniProt P9WJN5). Kind of experiment: SEC.
The target of experiment [10] is TbMscL K99C, spin-labeled with MTSSL (Mycobacterium tuberculosis) (UniProt P9WJN5). In words: SEC.
For experiment [11], the target named is TbMscL V48C, spin-labeled with MTSSL (Mycobacterium tuberculosis) (UniProt P9WJN5). Kind of experiment: SEC.
In experiment [12] the target is TbMscL L72C, spin-labeled with MTSSL (Mycobacterium tuberculosis) (UniProt P9WJN5). Kind of experiment: SEC.
The target of experiment [13] is TbMscL F84C, spin-labeled with MTSSL (Mycobacterium tuberculosis) (UniProt P9WJN5). In words: SEC.
Experiment [14] has as its target TbMscL L73C, spin-labeled with MTSSL (Mycobacterium tuberculosis) (UniProt P9WJN5). Kind of experiment: SEC.
For experiment [15], the target named is TbMscL K100C, spin-labeled with MTSSL (Mycobacterium tuberculosis) (UniProt P9WJN5). In words: SEC.
The target in experiment [16] is TbMscL L72R1-L89W (Mycobacterium tuberculosis) (UniProt P9WJN5). In words: SEC.
The target is the same in experiment [17]. Kind of experiment: SEC; samples thawed after PELDOR measurements and run over SEC.
Experiment [18] addresses TbMscL V112C, spin-labeled with MTSSL (Mycobacterium tuberculosis) (UniProt P9WJN5). In words: SEC.
The target of experiment [19] is TbMscL F88C, spin-labeled with MTSSL (Mycobacterium tuberculosis) (UniProt P9WJN5). Kind of experiment: SEC.
Experiment [20] deals with TbMscL F5C, spin-labeled with MTSSL (Mycobacterium tuberculosis) (UniProt P9WJN5). Kind of experiment: SEC.
Experiment [21] concerns the target TbMscL Y87C, spin-labeled with MTSSL (Mycobacterium tuberculosis) (UniProt P9WJN5). Kind of experiment: SEC.
The target in experiment [22] is TbMscL L2C, spin-labeled with MTSSL (Mycobacterium tuberculosis) (UniProt P9WJN5). Kind of experiment: SEC.
In experiment [23] the target is TbMscL F79C, spin-labeled with MTSSL (Mycobacterium tuberculosis) (UniProt P9WJN5). Kind of experiment: SEC.
Experiment [24] has as its target TbMscL K100R1-F88W (Mycobacterium tuberculosis) (UniProt P9WJN5). Kind of experiment: SEC.
Experiment [25] deals with TbMscL A85C, spin-labeled with MTSSL (Mycobacterium tuberculosis) (UniProt P9WJN5). Kind of experiment: SEC.
Experiment [26] deals with TbMscL R98C, spin-labeled with MTSSL (Mycobacterium tuberculosis) (UniProt P9WJN5). Kind of experiment: SEC.
Experiment [27] concerns the target TbMscL K100R1-L89W (Mycobacterium tuberculosis) (UniProt P9WJN5). Kind of experiment: SEC.

In experiment [1], “TbMscL I23C, spin-labeled with MTSSL (from UniProt P9WJN5 1-151) (natural protein)” had a stoichiometry N of 5. In the case of “TbMscL E102C, spin-labeled with MTSSL (from UniProt P9WJN5 1-151) (natural protein)”, the stoichiometry N in [2] and in [3] was 5 each time.

“TbMscL L73R1-L89W (from UniProt P9WJN5 1-151) (natural protein)” yielded a stoichiometry N in experiment [4] of 5. As for “TbMscL N70C, spin-labeled with MTSSL (from UniProt P9WJN5 1-151) (natural protein)”, the stoichiometry N in experiment [5] worked out at 5. In experiment [6], “TbMscL L89C, spin-labeled with MTSSL (from UniProt P9WJN5 1-151) (natural protein)” displayed a stoichiometry N of 5.

Turning to “TbMscL L42C, spin-labeled with MTSSL (from UniProt P9WJN5 1-151) (natural protein)”, the stoichiometry N in experiment [7] was 5. Regarding “TbMscL F34C, spin-labeled with MTSSL (from UniProt P9WJN5 1-151) (natural protein)”, the stoichiometry N in [8] came out at 5. Take “TbMscL N70R1-L89W (from UniProt P9WJN5 1-151) (natural protein)”: in [9], the stoichiometry N worked out at 5. As to “TbMscL K99C, spin-labeled with MTSSL (from UniProt P9WJN5 1-151) (natural protein)”, in [10], the stoichiometry N is 5. The substance “TbMscL V48C, spin-labeled with MTSSL (from UniProt P9WJN5 1-151) (natural protein)” yielded a stoichiometry N in experiment [11] of 5. In experiment [12], “TbMscL L72C, spin-labeled with MTSSL (from UniProt P9WJN5 1-151) (natural protein)” showed a stoichiometry N of 5. For the substance “TbMscL F84C, spin-labeled with MTSSL (from UniProt P9WJN5 1-151) (natural protein)”, the stoichiometry N in [13] is 5. As for “TbMscL L73C, spin-labeled with MTSSL (from UniProt P9WJN5 1-151) (natural protein)”, in [14], the stoichiometry N was 5. In turn, “TbMscL K100C, spin-labeled with MTSSL (from UniProt P9WJN5 1-151) (natural protein)” came in with a stoichiometry N in [15] of 5. Turning to “TbMscL L72R1-L89W (from UniProt P9WJN5 1-151) (natural protein)”, the stoichiometry N in experiment [16] and in experiment [17] was 5 in each case. The substance “TbMscL V112C, spin-labeled with MTSSL (from UniProt P9WJN5 1-151) (natural protein)” registered a stoichiometry N in experiment [18] of 5. For the substance “TbMscL F88C, spin-labeled with MTSSL (from UniProt P9WJN5 1-151) (natural protein)”, in experiment [19], the stoichiometry N was 5. With “TbMscL F5C, spin-labeled with MTSSL (from UniProt P9WJN5 1-151) (natural protein)”, the stoichiometry N in experiment [20] amounted to 5. The substance “TbMscL Y87C, spin-labeled with MTSSL (from UniProt P9WJN5 1-151) (natural protein)” had a stoichiometry N in experiment [21] of 5.

The substance “TbMscL L2C, spin-labeled with MTSSL (from UniProt P9WJN5 1-151) (natural protein)” gave a stoichiometry N in experiment [22] of 5. Consider “TbMscL F79C, spin-labeled with MTSSL (from UniProt P9WJN5 1-151) (natural protein)”, for which, in [23], the stoichiometry N was found to be 5. In turn, “TbMscL K100R1-F88W (from UniProt P9WJN5 1-151) (natural protein)” showed a stoichiometry N in [24] of 5.

In turn, “TbMscL A85C, spin-labeled with MTSSL (from UniProt P9WJN5 1-151) (natural protein)” yielded a stoichiometry N in [25] of 5. In turn, “TbMscL R98C, spin-labeled with MTSSL (from UniProt P9WJN5 1-151) (natural protein)” came in with a stoichiometry N in experiment [26] of 5. For “TbMscL K100R1-L89W (from UniProt P9WJN5 1-151) (natural protein)”, the stoichiometry N in [27] turned out to be 5.

The stoichiometry N is a count of units in the complex or per binding partner.
